Results taken from patent US20170189519A1.

Tests used:
Experiment in all cases: ELISA, coated CR6261, P. pastoris medium
Conditions in all cases: remark: other sources report otherwise
[1] = molecular target: 218G11 (influenza A H1N1 A/Brisbane/59/2007)
[2] = molecular target: 112F3 (influenza A H1N1 A/Brisbane/59/2007)
[3] = molecular target: 199F3 (influenza A H1N1 A/Brisbane/59/2007)
[4] = molecular target: 20688 (influenza A H1N1 A/Brisbane/59/2007)
[5] = molecular target: 113E7 (influenza A H1N1 A/Brisbane/59/2007)
[6] = molecular target: 272H2 (influenza A H1N1 A/Brisbane/59/2007)
[7] = molecular target: 101D4 (influenza A H1N1 A/Brisbane/59/2007)
[8] = molecular target: 213C11 (influenza A H1N1 A/Brisbane/59/2007)
[9] = molecular target: 187H10 (influenza A H1N1 A/Brisbane/59/2007)
[10] = molecular target: 213B2 (influenza A H1N1 A/Brisbane/59/2007)
[11] = molecular target: 220C9 (influenza A H1N1 A/Brisbane/59/2007)
[12] = molecular target: 138F8 (influenza A H1N1 A/Brisbane/59/2007)
[13] = molecular target: 138F11 (influenza A H1N1 A/Brisbane/59/2007)
[14] = molecular target: 24782 (influenza A H1N1 A/Brisbane/59/2007)
[15] = molecular target: 266A11 (influenza A H1N1 A/Brisbane/59/2007)
[16] = molecular target: 304G11 (influenza A H1N1 A/Brisbane/59/2007)
[17] = molecular target: 127A7 (influenza A H1N1 A/Brisbane/59/2007)
[18] = molecular target: 182H2 (influenza A H1N1 A/Brisbane/59/2007)
[19] = molecular target: 129C2 (influenza A H1N1 A/Brisbane/59/2007)
[20] = molecular target: 230G9 (influenza A H1N1 A/Brisbane/59/2007)
[21] = molecular target: 245C9 (influenza A H1N1 A/Brisbane/59/2007)
[22] = molecular target: 134A3 (influenza A H1N1 A/Brisbane/59/2007)
[23] = molecular target: 13185 (influenza A H1N1 A/Brisbane/59/2007)
[24] = molecular target: 176A5 (influenza A H1N1 A/Brisbane/59/2007)
[25] = molecular target: 188A8 (influenza A H1N1 A/Brisbane/59/2007)
[26] = molecular target: 194C8 (influenza A H1N1 A/Brisbane/59/2007)
[27] = molecular target: 18987 (influenza A H1N1 A/Brisbane/59/2007)
[28] = molecular target: 182D3 (influenza A H1N1 A/Brisbane/59/2007)
[29] = molecular target: 123G2 (influenza A H1N1 A/Brisbane/59/2007)
[30] = molecular target: 264G4 (influenza A H1N1 A/Brisbane/59/2007)
[31] = molecular target: 194E4 (influenza A H1N1 A/Brisbane/59/2007)
[32] = molecular target: 104C4 (influenza A H1N1 A/Brisbane/59/2007)
[33] = molecular target: 214C4 (influenza A H1N1 A/Brisbane/59/2007)
[34] = molecular target: 244B8 (influenza A H1N1 A/Brisbane/59/2007)
[35] = molecular target: 145E8 (influenza A H1N1 A/Brisbane/59/2007)

B1: CR6261 (antibody, V domains shown)
VH: EVQLVESGAEVKKPGSSVKVSCKASGGPFRSYAISWVRQAPGQGPEWMGGIIPIFGTTKYAPKFQGRVTITADDFAGTVYMELSSLRSEDTAMYYCAKHMGYQVRETMDVWGKGTTVTVSS
VL: QSVLTQPPSVSAAPGQKVTISCSGSSSNIGNDYVSWYQQLPGTAPKLLIYDNNKRPSGIPDRFSGSKSGTSATLGITGLQTGDEANYYCATWDRRPTAYVVFGGGTKLTVLG
- CR6261 binding signal [1]: 959000
- CR6261 binding signal [2]: 450000
- CR6261 binding signal [3]: 329000
- CR6261 binding signal [4]: 286000
- CR6261 binding signal [5]: 966000
- CR6261 binding signal [6]: 263000
- CR6261 binding signal [7]: 337000
- CR6261 binding signal [8]: 667000
- CR6261 binding signal [9]: 299000
- CR6261 binding signal [10]: 132000
- CR6261 binding signal [11]: 1.09e+06
- CR6261 binding signal [12]: 348000
- CR6261 binding signal [13]: 148000
- CR6261 binding signal [14]: 415000
- CR6261 binding signal [15]: 90600
- CR6261 binding signal [16]: 111000
- CR6261 binding signal [17]: 233000
- CR6261 binding signal [18]: 110000
- CR6261 binding signal [19]: 199000
- CR6261 binding signal [20]: 855000
- CR6261 binding signal [21]: 180000
- CR6261 binding signal [22]: 532000
- CR6261 binding signal [23]: 844000
- CR6261 binding signal [24]: 193000
- CR6261 binding signal [25]: 279000
- CR6261 binding signal [26]: 242000
- CR6261 binding signal [27]: 336000
- CR6261 binding signal [28]: 143000
- CR6261 binding signal [29]: 499000
- CR6261 binding signal [30]: 181000
- CR6261 binding signal [31]: 409000
- CR6261 binding signal [32]: 521000
- CR6261 binding signal [33]: 302000
- CR6261 binding signal [34]: 274000
- CR6261 binding signal [35]: 212000
